Reference: patent US20070207967A1, “Peptide Inhibitors of Matrix Metalloproteinase Activity” (CTT CANCER TARGETING TECHNOLOGIES OY, priority 2004, published 2007)

What was measured:
[1] = target: T1, αM integrin I domain (Homo sapiens, UniProt P11215); details: ref (12); cited from earlier work
[2] = target: T1, αM integrin I domain; test: Pro-MMP-9 binding to αM integrin I domain
Method: Pro-MMP-9 and gelatin binding to leukocyte αM integrin. Pro-MMP-9 binding to the αM I domain in the presence of peptides was studied as described (12). Gelatin binding to the pro-MMP-^9/αMβ2 integrin complex was studied by immobilizing the integrin αMβ2 (12) or αIIbβ3 as a control (Enzyme Research Laboratories, South Bend, Ind.) (1 μg/well) in TBS/1 mM CaCl2/1 mM MgCl2 followed by saturation of the wells with 1% BSA in PB ST. Pro-MMP-9 (100 ng/well) was incubated for 2 h and the unbound pro-MMP-9 was washed away. Biotinylated gelatin (2.5 μg/ml) was allowed to bind for 30 min at room temperature. Bound gelatin was detected with streptavidin-peroxidase.

[3] = system: leukocytes; details: ref (12); cited from earlier work
[4] = target: pro-MMP-9 (Homo sapiens, UniProt P14780); test: Pro-MMP-9 activation in THP-1 cells, zymography; type: cell-based; details: THP-1, pro-MMP-3 and plasminogen, peptides 200 μM
Method: Activation of MMP-9. THP-1 cells (40 000/100 μl) or confluent HT1080 cells were incubated for 16 h in the presence or absence of 2.5 μg/ml plasminogen, 0.5 μg/ml pro-MMP-3 (Oncogene Research Products), 40 nM PDBu, and the peptides at a 200 μM concentration unless otherwise indicated. Aliquots of the conditioned media were analyzed by gelatin zymography (9). […] The samples were analyzed by gelatin zymography.

[5] = system: neutrophil recruitment; details: acute inflammation model in mice; ref (48); cited from earlier work
[6] = system: β5 integrin-transfected CS-1 melanoma cells; test: 125I-C domain binding to cells; type: cell-based, hamster; details: unlabelled proteins 50 μg/ml, peptides 50 μM
Method: ^125I-C domain binding to cells. The MMP-9 C domain was labelled with ^125I to a specific activity 0.06 μCi/pmol. The labelled domain retained 40% of the CRV peptide-binding activity as shown by the phage-binding assay. […] After a preincubation of 1.5×10^6 cells in a 200 μl volume on ice for 30 min with the competitors, ^125I-labelled C domain (1×10^6 cpm) was added and incubated for three hours on ice. The cells were transferred to tubes containing 200 μl of dibutyl phthalate/cyclohexane mixture (23:2 vol/vol), centrifuged 7500×g for 10 minutes and snap-frozen (24). The bottom of the tube containing the cells were cut and analyzed with a gamma-counter.

T1 sequence (P11215 150-328 limits assumed): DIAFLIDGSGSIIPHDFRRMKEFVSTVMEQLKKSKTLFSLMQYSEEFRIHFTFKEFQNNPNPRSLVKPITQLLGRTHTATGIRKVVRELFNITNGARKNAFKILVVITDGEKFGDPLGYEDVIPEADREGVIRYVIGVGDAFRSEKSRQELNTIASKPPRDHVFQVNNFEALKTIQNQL
Sequence of pro-MMP-9 (P14780 20-707 limits assumed): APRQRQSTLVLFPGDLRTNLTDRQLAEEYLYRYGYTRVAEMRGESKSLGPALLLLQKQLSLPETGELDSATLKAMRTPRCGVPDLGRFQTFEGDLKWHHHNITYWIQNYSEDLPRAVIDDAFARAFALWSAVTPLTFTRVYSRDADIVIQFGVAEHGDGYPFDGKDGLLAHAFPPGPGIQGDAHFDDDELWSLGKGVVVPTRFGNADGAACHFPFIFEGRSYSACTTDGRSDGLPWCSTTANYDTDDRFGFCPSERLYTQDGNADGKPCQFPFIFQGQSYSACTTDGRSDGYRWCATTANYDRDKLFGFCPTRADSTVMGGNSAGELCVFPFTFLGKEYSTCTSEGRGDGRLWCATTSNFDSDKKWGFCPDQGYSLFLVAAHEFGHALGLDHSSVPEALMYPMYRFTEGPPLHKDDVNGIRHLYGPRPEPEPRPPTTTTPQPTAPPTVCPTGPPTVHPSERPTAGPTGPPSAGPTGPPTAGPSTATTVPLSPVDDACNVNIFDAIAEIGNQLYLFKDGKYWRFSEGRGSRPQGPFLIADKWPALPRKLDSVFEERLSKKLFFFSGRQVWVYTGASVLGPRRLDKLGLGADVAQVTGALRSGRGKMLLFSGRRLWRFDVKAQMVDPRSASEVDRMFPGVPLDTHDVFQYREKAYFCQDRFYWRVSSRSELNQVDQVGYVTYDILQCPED

Substance: ADGACILWMDDGWCGAAG
- Competition with pro-MMP-9 binding to I domain of αM integrin subunit [1]: competed
- Effect on interaction of MMP-9 with the leukocyte αM integrin I domain [2]: blocked
- Inhibition of migration of leukocytes [3]: inhibited migration of leukocytes
- Effect on pro-MMP-9 activation [4]: augmented
- Inhibition of neutrophil recruitment [5]: active in vivo inhibiting neutrophil recruitment

Substance: GRGDSP [reference compound]
- Competition of 125I-labelled MMP-9 C domain binding to β5 integrin-transfected CS-1 cells [6]: No competition
